This note sets out measurements from PMC10700182, “A Bacterial Quorum Sensing Regulated Protease Inhibits Host Immune Responses by Cleaving Death Domains of Innate Immune Adaptors” (Advanced Science, 2023).

This series concerns the molecule itself. Kind of series: native gel or EMSA.

B1: Myd88 DD^20-117-SNAP (domain or fragment)
chain: LPLAALNMRVRRRLSLFLNVRTQVAADWTALAEEMDFEYLEIRQLETQADPTGRLLDAWQGRPGASVGRLLELLTKLGRDDVLLELGPSIEEDCQKYI
modifications: benzylguanine dye (BG-647 or BG-488, AlexaFluor) on the SNAP tag
notes: also called MyD88 Death domain; MyD88 DD SNAP; source: E. coli BL21(DE3), purified (Ni-NTA agarose)
On to B1, for which the binding result is listed as “binds”.
